Where two headings read alike, the source gives them in different places.
Tests used:
Test in all cases: cryo-EM structure
[1] = target: T1, E. coli [Cys541;Pro607]-σ^70 (E. coli, UniProt P00579 1-613, R541C | L607P)
E. coli NusA = E. coli NusA (E. coli, UniProt P0AFF6 1-495)
[2] = target: T1, E. coli [Cys541;Pro607]-σ^70; remark: listed apart in the source

Binder	binding result [1]	binding result (E. coli NusA)	binding result [2]
wild-type Qλ (Q protein of bacteriophage λ) (natural protein, UniProt P03047 1-207, looked up) MRLESVAKFHSPKSPMMSDSPRATASDSLSGTDVMAAMGMAQSQAGFGMAAFCGKHELSQNDKQKAINYLMQFAHKVSGKYRGVAKLEGNTKAKVLQVLATFAYADYCRSAATPGARCRDCHGTGRAVDIAKTELWGRVVEKECGRCKGVGYSRMPASAAYRAVTMLIPNLTQPTWSRTVKPLYDALVVQCHKEESIADNILNAVTR	binds	binds	–
Qλ^M1S (Q protein of bacteriophage λ, M1S derivative) (natural protein, UniProt P03047 1-207, looked up) SRLESVAKFHSPKSPMMSDSPRATASDSLSGTDVMAAMGMAQSQAGFGMAAFCGKHELSQNDKQKAINYLMQFAHKVSGKYRGVAKLEGNTKAKVLQVLATFAYADYCRSAATPGARCRDCHGTGRAVDIAKTELWGRVVEKECGRCKGVGYSRMPASAAYRAVTMLIPNLTQPTWSRTVKPLYDALVVQCHKEESIADNILNAVTR	–	–	binds
